Columns and labels:
[1] = cell-surface flow cytometry, MCF-7
[2] = cell-surface flow cytometry, MDA-MB-231
[3] = glycan lost, control: WT-PD-L1 MCF-7 cells
[4] = glycan lost, control: WT-PD-L1 MDA cells

| Substance | expression_or_secretion [1, 3] | expression_or_secretion [2, 4] | expression_or_secretion ([1]; glycan changed form, control: vehicle-treated WT-PD-L1 MCF-7 cells) | expression_or_secretion ([2]; glycan changed form, control: vehicle-treated WT-PD-L1 MDA cells) |
| --- | --- | --- | --- | --- |
| PD-L1: N35A-PD-L1 | no change | no change | – | – |
| PD-L1: N192A-PD-L1 | no change | no change | – | – |
| PD-L1: N200A-PD-L1 | no change | no change | – | – |
| PD-L1: N219A-PD-L1 | no change | no change | – | – |
| PD-L1: kifunensine | – | – | no change | no change |
